Patent US7947468B2, “Methods” (Medical Research Council, priority 2007, dated 2011)
Substitutions are numbered along the chain they refer to. Names may count otherwise.

Legend:
[1] = substrate: CC[C@H](C)[C@H](NC(=O)[C@H](CCC(N)=O)NC(=O)[C@H](CCCNC(=N)N)NC(=O)[C@H](CC(C)C)NC(=O)[C@@H](NC(=O)[C@H](CCCCN)NC(=O)[C@H](Cc1ccc(O)cc1)NC(=O)[C@H](CCCCN)NC(=O)[C@H](CC(=O)O)NC(=O)[C@H](CCCNC(=N)N)NC(=O)CNC(=O)[C@H](CC(C)C)NC(=O)[C@@H](N)CCCNC(=N)N)[C@@H](C)O)C(=O)N[C@@H](CCCNC(=N)N)C(=O)N[C@@H](CCC(N)=O)C(=O)O; test: Assay of LRRK2 using LRRKtide as substrate (non-mutated enzyme); format: biochemical, human; details: other: non-mutated GST-LRRK2[1326-2527], varying LRRKtide, 0.1 mM ATP, 30 min 30° C.
Procedure: (§1) Assay of LRRK2 using LRRKtide as substrate. Assays were set up in a total volume of 50 μl of Buffer A containing 0.5-0.7 μg of either wild type or mutant forms LRRK2, 10 mM MgCl2 and 0.1 mM [γ^32P]-ATP (300 cpm/pmol) in the presence of 300 μM or the indicated concentration of LRRKtide (RLGRDKYKTLRQIRQ; SEQ ID NO:1) peptide substrate. After incubation for 30 min at 30° C., reactions were terminated by applying 40 μl of the reaction mixture onto P81 phosphocellulose paper and phosphorylation of LRRKtide was quantified following washing the P81 phosphocellulose in 50 mM phosphoric acid and Cherenkov counting. One Unit (U) of LRRK2 activity was defined as the amount of enzyme that catalysed the incorporation of 1 nmol of ^32P into LRRKtide. Km and Vmax parameters were determined by performing the assay described above using varying concentration of LRRKtide. The Km and Vmax parameters were calculated using the Graph-Pad prism programme.

[2] = substrate: CC[C@H](C)[C@H](NC(=O)[C@H](CCC(N)=O)NC(=O)[C@H](CCCNC(=N)N)NC(=O)[C@H](CC(C)C)NC(=O)[C@@H](NC(=O)[C@H](CCCCN)NC(=O)[C@H](Cc1ccc(O)cc1)NC(=O)[C@H](CCCCN)NC(=O)[C@H](CC(=O)O)NC(=O)[C@H](CCCNC(=N)N)NC(=O)CNC(=O)[C@H](CC(C)C)NC(=O)[C@@H](N)CCCNC(=N)N)[C@@H](C)O)C(=O)N[C@@H](CCCNC(=N)N)C(=O)N[C@@H](CCC(N)=O)C(=O)O; test: Assay of LRRK2 using LRRKtide as substrate (G2019S mutant); format: biochemical, human; details: other: GST-LRRK2[1326-2527, G2019S], varying LRRKtide, 0.1 mM ATP, 30 min 30° C.
Procedure: as §1

B1: GST-LRRK2[1326-2527] (Homo sapiens) (protein)
chain: LKKAVPYNRMKLMIVGNTGSGKTTLLQQLMKTKKSDLGMQSATVGIDVKDWPIQIRDKRKRDLVLNVWDFAGREEFYSTHPHFMTQRALYLAVYDLSKGQAEVDAMKPWLFNIKARASSSPVILVGTHLDVSDEKQRKACMSKITKELLNKRGFPAIRDYHFVNATEESDALAKLRKTIINESLNFKIRDQLVVGQLIPDCYVELEKIILSERKNVPIEFPVIDRKRLLQLVRENQLQLDENELPHAVHFLNESGVLLHFQDPALQLSDLYFVEPKWLCKIMAQILTVKVEGCPKHPKGIISRRDVEKFLSKKRKFPKNYMSQYFKLLEKFQIALPIGEEYLLVPSSLSDHRPVIELPHCENSEIIIRLYEMPYFPMGFWSRLINRLLEISPYMLSGRERALRPNRMYWRQGIYLNWSPEAYCLVGSEVLDNHPESFLKITVPSCRKGCILLGQVVDHIDSLMEEWFPGLLEIDICGEGETLLKKWALYSFNDGEEHQKILLDDLMKKAEEGDLLVNPDQPRLTIPISQIAPDLILADLPRNIMLNNDELEFEQAPEFLLGDGSFGSVYRAAYEGEEVAVKIFNKHTSLRLLRQELVVLCHLHHPSLISLLAAGIRPRMLVMELASKGSLDRLLQQDKASLTRTLQHRIALHVADGLRYLHSAMIIYRDLKPHNVLLFTLYPNAAIIAKIADYGIAQYCCRMGIKTSEGTPGFRAPEVARGNVIYNQQADVYSFGLLLYDILTTGGRIVEGLKFPNEFDELEIQGKLPDPVKEYGCAPWPMVEKLIKQCLKENPQERPTSAQVFDILNSAELVCLTRRILLPKNVIVECMVATHHNSRNASIWLGCGHTDRGQLSFLDLNTEGYTSEEVADSRILCLALVHLPVEKESWIVSGTQSGTLLVINTEDGKKRHTLEKMTDSVTCLYCNSFSKQSKQKNFLLVGTADGKLAIFEDKTVKLKGAAPLKILNIGNVSTPLMCLSESTNSTERNVMWGGCGTKIFSFSNDFTIQKLIETRTSQLFSYAAFSDSNIITVVVDTALYIAKQNSPVVEVWDKKTEKLCGLIDCVHFLREVMVKENKESKHKMSYSGRVKTLCLQKNTALWIGTGGGHILLLDLSTRRLIRVIYNFCNSVRVMMTAQLGSLKNVMLVLGYNRKNTEGTQKQKEIQSCLTVWDINLPHEVQNLEKHIEVRKELAEKMRRTSVE
notes: phosphorylated by both non-mutated GST-LRRK2[1326-2527] and GST-LRRK2[1326-2527, G2019S]; made in house; host or cells: HEK 293 cells, pEBG-2T vector
Question: B1 was tested. Which Km [1] did it give?
Answer: 200 µM

B2: GST-LRRK2[1326-2527, G2019S] (Homo sapiens; G2019S) (protein)
chain: B1 chain with G694S
notes: made in house; host or cells: HEK 293 cells, pEBG-2T vector
Question: How did the Km [2] turn out when B2 was run?
Answer: 200 µM

Question: And the Vmax [2]?
Answer: 10 U/mg
